Measured values from paper PMC10801921.
Numbering of substitutions follows the chain as printed.

Key:
[1] = target: T1, ARR1 RD-DBD R294A (Arabidopsis thaliana, UniProt Q940D0 1-301, R294A); experiment: BLI
T1 sequence: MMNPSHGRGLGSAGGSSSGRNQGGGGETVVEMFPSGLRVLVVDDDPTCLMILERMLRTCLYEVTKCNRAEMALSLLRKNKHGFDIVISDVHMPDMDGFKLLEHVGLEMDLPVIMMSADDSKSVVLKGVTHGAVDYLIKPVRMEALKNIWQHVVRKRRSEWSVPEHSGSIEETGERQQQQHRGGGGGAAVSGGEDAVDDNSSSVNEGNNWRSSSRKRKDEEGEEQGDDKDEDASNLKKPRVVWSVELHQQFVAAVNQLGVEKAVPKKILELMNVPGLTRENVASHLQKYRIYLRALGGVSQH

[2] = target: T2, ARR1 RD-DBD D89E (Arabidopsis thaliana, UniProt Q940D0 1-301, D89E); experiment: BLI
T2 sequence: T1 sequence with D89E, A294R

[3] = target: T3, ARR1 DBD (crystal) (Arabidopsis thaliana, UniProt Q940D0 221-301); experiment: X-ray crystallography
T3 sequence: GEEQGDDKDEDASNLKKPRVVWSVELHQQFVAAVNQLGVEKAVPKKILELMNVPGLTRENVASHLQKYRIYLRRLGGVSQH

B1: DNA-TCS 40 bp (ARR6-40) (dsDNA)
DNA 1: GGATTAGATTAGATTAATCTGGATTAGATTAATCTAGATT
DNA 2: AATCTAGATTAATCTAATCCAGATTAATCTAATCTAATCC
B1: binds [1]; binds [2].

B2: DNA-TCS 25 bp (crystal) (dsDNA)
DNA 1: AATCCAGATTAATCTAATCTAATCC
DNA 2: GGATTAGATTAGATTAATCTGGATT
B2: binds [3].
